Data published in paper PMC4119481.

Target: T1, IFN regulatory factor 3 (mouse (endogenous in BMDMs)), P70671
T1 chain: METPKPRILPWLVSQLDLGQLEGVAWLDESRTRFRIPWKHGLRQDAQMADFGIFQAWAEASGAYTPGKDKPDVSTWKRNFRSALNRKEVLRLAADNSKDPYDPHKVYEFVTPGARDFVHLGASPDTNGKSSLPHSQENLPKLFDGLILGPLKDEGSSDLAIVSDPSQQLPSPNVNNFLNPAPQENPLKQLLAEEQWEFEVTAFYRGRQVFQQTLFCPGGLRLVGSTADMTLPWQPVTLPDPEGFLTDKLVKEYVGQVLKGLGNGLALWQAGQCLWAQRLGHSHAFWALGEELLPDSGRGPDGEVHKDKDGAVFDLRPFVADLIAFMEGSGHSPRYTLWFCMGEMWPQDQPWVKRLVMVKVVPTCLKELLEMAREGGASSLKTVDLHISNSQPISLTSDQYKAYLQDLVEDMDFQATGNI
Test: native gel or EMSA
Details: remark: other sources report otherwise

B1: IFN regulatory factor 3, P70671 1-419 (natural protein)
chain: T1 chain
Question: For B1, which stoichiometry N is on record?
Answer: 2
